The source of these data is patent US20240059799A1 (Pfizer, published 2024).

One assay addresses T1, human IL-12 (human, UniProt P29460 23-328; P29459 23-219).
T1 sequence 1: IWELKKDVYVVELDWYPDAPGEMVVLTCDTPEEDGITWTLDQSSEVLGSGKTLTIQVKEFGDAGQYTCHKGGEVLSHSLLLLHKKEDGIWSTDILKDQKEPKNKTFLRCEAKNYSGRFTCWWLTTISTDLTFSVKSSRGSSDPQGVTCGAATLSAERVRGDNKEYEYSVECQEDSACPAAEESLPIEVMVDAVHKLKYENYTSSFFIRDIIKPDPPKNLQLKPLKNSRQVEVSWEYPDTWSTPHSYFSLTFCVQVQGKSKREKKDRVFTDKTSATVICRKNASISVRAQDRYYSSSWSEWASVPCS
T1 sequence 2: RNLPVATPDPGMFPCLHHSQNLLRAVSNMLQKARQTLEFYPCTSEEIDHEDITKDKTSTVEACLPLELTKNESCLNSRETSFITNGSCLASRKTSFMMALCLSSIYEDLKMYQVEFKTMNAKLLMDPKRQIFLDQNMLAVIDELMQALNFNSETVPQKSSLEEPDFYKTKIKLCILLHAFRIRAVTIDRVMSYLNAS
Put plainly: cell-based or functional assay.

In assay [1] the target is T2, cynomolgus monkey IL-12 (cynomolgus monkey).
T2 chain 1: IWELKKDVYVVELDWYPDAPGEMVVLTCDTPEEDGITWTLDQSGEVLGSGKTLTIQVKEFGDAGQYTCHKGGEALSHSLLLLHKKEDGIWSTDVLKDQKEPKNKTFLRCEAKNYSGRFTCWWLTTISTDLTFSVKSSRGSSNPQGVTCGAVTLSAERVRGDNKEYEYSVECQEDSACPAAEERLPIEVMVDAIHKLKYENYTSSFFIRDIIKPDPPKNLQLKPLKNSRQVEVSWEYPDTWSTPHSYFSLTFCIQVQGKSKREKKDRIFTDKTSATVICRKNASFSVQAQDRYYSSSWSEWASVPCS
T2 chain 2: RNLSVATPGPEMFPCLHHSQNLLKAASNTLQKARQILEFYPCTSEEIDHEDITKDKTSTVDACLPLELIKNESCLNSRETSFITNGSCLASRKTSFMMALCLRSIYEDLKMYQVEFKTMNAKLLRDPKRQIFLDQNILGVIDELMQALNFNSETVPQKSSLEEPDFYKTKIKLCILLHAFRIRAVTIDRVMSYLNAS
In words: cell-based or functional assay.

Assay [2] deals with T3, human IL-23 (human, UniProt P29460 23-328; Q9NPF7 20-189).
T3 sequence 1: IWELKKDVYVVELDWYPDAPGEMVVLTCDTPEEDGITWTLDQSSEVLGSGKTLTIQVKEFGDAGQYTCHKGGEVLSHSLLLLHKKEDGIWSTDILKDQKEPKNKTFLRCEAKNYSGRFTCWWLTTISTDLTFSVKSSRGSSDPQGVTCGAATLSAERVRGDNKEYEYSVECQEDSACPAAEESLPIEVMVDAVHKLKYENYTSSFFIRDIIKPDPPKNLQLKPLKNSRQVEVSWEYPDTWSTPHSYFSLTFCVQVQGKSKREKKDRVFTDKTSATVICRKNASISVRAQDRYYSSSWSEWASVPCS
T3 sequence 2: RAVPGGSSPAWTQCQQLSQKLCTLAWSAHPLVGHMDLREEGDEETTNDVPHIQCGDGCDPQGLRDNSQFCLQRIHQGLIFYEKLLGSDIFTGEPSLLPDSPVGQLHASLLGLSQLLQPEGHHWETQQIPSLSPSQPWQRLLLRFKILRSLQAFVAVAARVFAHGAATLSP
In words: cell-based or functional assay.

Assay [3] addresses T4, cynomolgus monkey IL-23 (cynomolgus monkey, limits assumed).
T4 chain 1: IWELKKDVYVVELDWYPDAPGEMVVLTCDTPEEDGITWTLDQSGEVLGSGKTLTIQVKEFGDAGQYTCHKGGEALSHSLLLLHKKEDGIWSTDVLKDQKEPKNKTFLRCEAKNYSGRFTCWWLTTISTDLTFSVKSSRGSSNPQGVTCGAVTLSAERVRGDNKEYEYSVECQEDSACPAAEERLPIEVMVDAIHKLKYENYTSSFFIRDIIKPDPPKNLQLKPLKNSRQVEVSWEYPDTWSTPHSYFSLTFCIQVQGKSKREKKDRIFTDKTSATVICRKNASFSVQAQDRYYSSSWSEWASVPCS
T4 chain 2: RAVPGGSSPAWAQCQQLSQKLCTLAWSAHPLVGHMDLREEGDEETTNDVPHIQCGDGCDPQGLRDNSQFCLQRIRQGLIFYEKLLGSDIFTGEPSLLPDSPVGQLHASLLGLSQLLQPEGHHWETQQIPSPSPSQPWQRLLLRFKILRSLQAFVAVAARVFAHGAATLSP
Put plainly: cell-based or functional assay.

The target in assay [4] is T3, human IL-23. Put plainly: SPR, 37 C; antibody captured by anti-human Fc, human IL-23 injected. How it is done: SPR was utilized to determine if the affinity constants of each arm of the bispecific variants binding human IL-23, containing the p40 subunit, and human TL1A were the same for each bispecific approach. For the analysis of the p40 binding arm, kinetic assays were conducted at 37° C. using a collection rate of 10 Hz on a Biacore™ 8 K+ instrument (GE Healthcare). An anti-human IgG antibody (anti-human Fc, GE Healthcare, 22-0648-88) was amine coupled to all four flow cells of a carboxymethylated dextran coated sensor chip (GE Healthcare,) using the manufacturer's recommended protocol. […] For the analysis of the TL1A binding arm, kinetic assays were conducted at 37° C. using a collection rate of 10 Hz on a Biacore™ T200 instrument (GE Healthcare).
As described above in EXAMPLE 12, SPR was utilized to determine if the affinity constants of each arm of the bispecific variants binding human IL-23, containing the p40 subunit, and human TL1A were the same for each bispecific variant.
A general note: SPR reads the build-up and loss of mass on a sensor chip optically.

For assay [5], the target named is T2, cynomolgus monkey IL-12. In words: SPR, Biacore 8K+, 37 C; antibody captured by anti-human Fc, cytokine injected. On the procedure: (§1) In order to determine binding to TL1A, kinetic assays were conducted at 37° C. using a collection rate of 10 Hz on a Biacore™ T200 instrument (GE Healthcare). […] For the analysis of the p40 binding arm, kinetic assays were conducted at 37° C. using a collection rate of 10 Hz on a Biacore™ 8 K+ instrument (GE Healthcare).

In a further assay the target is T5, mouse IL-12 (mouse, UniProt P43432 23-335; P43431 23-215).
T5 sequence 1: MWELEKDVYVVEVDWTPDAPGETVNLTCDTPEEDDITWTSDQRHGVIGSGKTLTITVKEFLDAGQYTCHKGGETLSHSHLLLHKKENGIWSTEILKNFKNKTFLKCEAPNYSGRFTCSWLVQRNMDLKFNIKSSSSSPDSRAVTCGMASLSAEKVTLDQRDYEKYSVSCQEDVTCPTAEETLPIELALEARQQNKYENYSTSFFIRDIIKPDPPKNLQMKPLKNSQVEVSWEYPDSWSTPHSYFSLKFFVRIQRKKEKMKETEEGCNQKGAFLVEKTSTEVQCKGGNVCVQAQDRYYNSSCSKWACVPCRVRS
T5 sequence 2: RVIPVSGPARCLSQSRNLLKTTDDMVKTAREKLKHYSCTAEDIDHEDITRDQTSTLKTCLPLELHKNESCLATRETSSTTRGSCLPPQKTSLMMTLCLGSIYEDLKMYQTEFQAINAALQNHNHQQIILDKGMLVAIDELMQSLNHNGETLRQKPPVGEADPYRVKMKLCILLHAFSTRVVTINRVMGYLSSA
The assay is described as above. On the procedure: as §1

Assay [6] addresses T4, cynomolgus monkey IL-23. The description is as above. How it is done: as §1

B1: p40TL1A-0033 bispecific antibody (bispecific antibody, human IgG1, kappa)
heavy: EVQLVQSGAEVKKPGESLKISCKGSGYSFTTYWLGWVRQMPGKGLDWIGIMSPVDSDIRYSPSFQGQVTMSVDKSITTAYLQWNSLKASDTAMYYCARRRPGQGYFDFWGQGTLVTVSSASTKGPSVFPLAPSSKSTSGGTAALGCLVKDYFPEPVTVSWNSGALTSGVHTFPAVLQSSGLYSLSSVVTVPSSSLGTQTYICNVNHKPSNTKVDKKVEPKSCDKTHTCPPCPAPEAAGAPSVFLFPPKPKDTLMISRTPEVTCVVVDVSHEDPEVKFNWYVDGVEVHNAKTKPREEQYNSTYRVVSVLTVLHQDWLNGKEYKCKVSNKALPAPIEKTISKAKGQPREPQVCTLPPSREEMTKNQVSLWCLVKGFYPSDIAVEWESNGQPENNYKTTPPVLDSDGSFFLYSKLTVDKSRWQQGNVFSCSVLHEALHSHYTQKSLSLSPGK
light: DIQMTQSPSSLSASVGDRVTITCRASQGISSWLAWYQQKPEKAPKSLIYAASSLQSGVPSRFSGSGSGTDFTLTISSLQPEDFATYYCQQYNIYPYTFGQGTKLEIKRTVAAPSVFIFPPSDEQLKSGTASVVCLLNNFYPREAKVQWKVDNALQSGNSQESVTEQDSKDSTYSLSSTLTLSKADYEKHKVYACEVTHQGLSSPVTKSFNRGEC
chain 1: not shown
chain 2: QVQLVQSGAEVKKPGASVKVSCKASGYDYTYYGISWVRQAPGQGLEWMGWISTYNTGTHYAPSLQGRVTMTTDTSTSTAYMELRSLRSDDTAVYYCARESYYGSGAFRGGMDVWGQGTTVTVSSASTKGPSVFPLAPSSKSTSGGTAALGCLVKDYFPEPVTVSWNSGALTSGVHTFPAVLQSSGLYSLSSVVTVPSSSLGTQTYICNVNHKPSNTKVDKKVEPKSC
notes: Single cell KiH, modified Fd format; IgG1 effector-function-minimized Fc with LS mutations
Turning to B1, in the assay with human IL-12, the “KIT-225 STAT4 phosphorylation, Human IL-12 IC50” value was found to be 1.11 nM. For the same molecule, the “KIT-225 STAT4 phosphorylation, Cynomolgus Monkey IL-12 IC50” value with cynomolgus monkey IL-12 [1] was 0.95 nM. Also, the “KIT-225 STAT3 phosphorylation, Human IL-23 IC50” value in the assay with human IL-23 [2] turned out to be 3.73 nM. In addition, the “KIT-225 STAT3 phosphorylation, Cynomolgus Monkey IL-23 IC50” value with cynomolgus monkey IL-23 [3] was 4.34 nM. Moreover, in the assay with human IL-23 [4], the koff was found to be 0.00056 s⁻¹ and the kon was found to be 2.28e+06 M⁻¹ s⁻¹. Also, in the assay with cynomolgus monkey IL-12 [5], binding was characterised by a dissociation constant (Kd) of 0.267 nM, the koff was 0.000636 s⁻¹ and the kon is 2.38e+06 M⁻¹ s⁻¹. Further, the binding result with mouse IL-12 is listed as “no binding (tested: 200 nM)”. In the assay with cynomolgus monkey IL-23 [6], this molecule registered a Kd of 0.281 nM, a koff of 0.000542 s⁻¹ and a kon of 1.93e+06 M⁻¹ s⁻¹.

A word on the koff: it is the rate constant with which the complex falls apart. What is called kon is the second-order rate constant of association. By Kd is commonly meant the concentration at which binding is half-saturated.
